Results published in US20240270860A1.

Tests used:
LS2…2RPGW = molecular target: T1, LS2…2RPGW; test: peptide-array ELISA (CYS.S)
T1 sequence (peptide, 2 = Cys(ACM)): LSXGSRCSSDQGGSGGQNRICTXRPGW

2…2RP = molecular target: T2, 2…2RP; test: peptide-array ELISA (CYS.S)
T2 sequence (peptide, 2 = Cys(ACM)): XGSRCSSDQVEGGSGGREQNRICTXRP

LS2…2RPG = molecular target: T3, LS2…2RPG; test: peptide-array ELISA (CYS.S)
T3 sequence (peptide, 2 = Cys(ACM)): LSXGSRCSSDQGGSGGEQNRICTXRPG

VPE2LS2…2RPGW = molecular target: T4, VPE2LS2…2RPGW; test: peptide-array ELISA (CYS.S)
T4 sequence (peptide, 2 = Cys(ACM)): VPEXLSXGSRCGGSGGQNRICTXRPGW

…2…2RPG = molecular target: T5, …2…2RPG; test: peptide-array ELISA (CYS.S)
T5 sequence (peptide, 2 = Cys(ACM)): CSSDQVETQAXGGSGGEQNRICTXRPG

2…2RPG = molecular target: T6, 2…2RPG; test: peptide-array ELISA (CYS.S)
T6 sequence (peptide, 2 = Cys(ACM)): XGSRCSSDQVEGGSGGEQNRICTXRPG

…2…2RPGW = molecular target: T7, …2…2RPGW; test: peptide-array ELISA (CYS.S)
T7 sequence (peptide, 2 = Cys(ACM)): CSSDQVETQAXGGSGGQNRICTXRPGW

PE2LS2…2RPG = molecular target: T8, PE2LS2…2RPG; test: peptide-array ELISA (CYS.S)
T8 sequence (peptide, 2 = Cys(ACM)): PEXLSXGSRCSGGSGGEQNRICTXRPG

…2RPG [1] = molecular target: T9, …2RPG; test: peptide-array ELISA (CYS.S)
T9 sequence (peptide, 2 = Cys(ACM)): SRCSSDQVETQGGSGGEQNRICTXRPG

…2RPG [2] = molecular target: T10, …2RPG; test: peptide-array ELISA (CYS.S); remark: listed apart in the source
T10 sequence (peptide, 2 = Cys(ACM)): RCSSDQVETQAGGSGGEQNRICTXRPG

E2LS2…2RPGW = molecular target: T11, E2LS2…2RPGW; test: peptide-array ELISA (CYS.S)
T11 sequence (peptide, 2 = Cys(ACM)): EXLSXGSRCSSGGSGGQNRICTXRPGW

…2RP [3] = molecular target: T12, …2RP; test: peptide-array ELISA (CYS.S)
T12 sequence (peptide, 2 = Cys(ACM)): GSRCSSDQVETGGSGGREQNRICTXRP

…2RP [4] = molecular target: T13, …2RP; test: peptide-array ELISA (CYS.S); remark: listed apart in the source
T13 sequence (peptide, 2 = Cys(ACM)): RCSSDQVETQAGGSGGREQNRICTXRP

…2…2RP = molecular target: T14, …2…2RP; test: peptide-array ELISA (CYS.S)
T14 sequence (peptide, 2 = Cys(ACM)): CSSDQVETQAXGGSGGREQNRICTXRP

S2…2RPG = molecular target: T15, S2…2RPG; test: peptide-array ELISA (CYS.S)
T15 sequence (peptide, 2 = Cys(ACM)): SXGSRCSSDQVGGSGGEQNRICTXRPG

VPE2LS2…2RPG = molecular target: T16, VPE2LS2…2RPG; test: peptide-array ELISA (CYS.S)
T16 sequence (peptide, 2 = Cys(ACM)): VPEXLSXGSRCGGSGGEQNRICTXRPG

2LS2…2RP = molecular target: T17, 2LS2…2RP; test: peptide-array ELISA (CYS.S)
T17 sequence (peptide, 2 = Cys(ACM)): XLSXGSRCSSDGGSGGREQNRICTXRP

…2R [5] = molecular target: T18, …2R; test: peptide-array ELISA (CYS.S)
T18 sequence (peptide, 2 = Cys(ACM)): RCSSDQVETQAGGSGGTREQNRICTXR

2LS2…2RPG = molecular target: T19, 2LS2…2RPG; test: peptide-array ELISA (CYS.S)
T19 sequence (peptide, 2 = Cys(ACM)): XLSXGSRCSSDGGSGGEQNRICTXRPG

LS2…2RP = molecular target: T20, LS2…2RP; test: peptide-array ELISA (CYS.S)
T20 sequence (peptide, 2 = Cys(ACM)): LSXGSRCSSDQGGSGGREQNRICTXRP

…2…2R = molecular target: T21, …2…2R; test: peptide-array ELISA (CYS.S)
T21 sequence (peptide, 2 = Cys(ACM)): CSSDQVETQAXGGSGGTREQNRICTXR

…2RPGW [6] = molecular target: T22, …2RPGW; test: peptide-array ELISA (CYS.S)
T22 sequence (peptide, 2 = Cys(ACM)): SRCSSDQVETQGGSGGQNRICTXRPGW

…2RPGW [7] = molecular target: T23, …2RPGW; test: peptide-array ELISA (CYS.S); remark: listed apart in the source
T23 sequence (peptide, 2 = Cys(ACM)): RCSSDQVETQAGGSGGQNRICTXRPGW

…2RPG [8] = molecular target: T24, …2RPG; test: peptide-array ELISA (CYS.S); remark: listed apart in the source
T24 sequence (peptide, 2 = Cys(ACM)): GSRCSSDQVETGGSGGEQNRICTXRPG

E2LS2…2RP = molecular target: T25, E2LS2…2RP; test: peptide-array ELISA (CYS.S)
T25 sequence (peptide, 2 = Cys(ACM)): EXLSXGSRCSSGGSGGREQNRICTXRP

PE2LS2…2RPGW = molecular target: T26, PE2LS2…2RPGW; test: peptide-array ELISA (CYS.S)
T26 sequence (peptide, 2 = Cys(ACM)): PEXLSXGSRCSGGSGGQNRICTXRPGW

VPE2LS2…2RP = molecular target: T27, VPE2LS2…2RP; test: peptide-array ELISA (CYS.S)
T27 sequence (peptide, 2 = Cys(ACM)): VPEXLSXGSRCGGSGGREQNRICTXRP

S2…2RPGW = molecular target: T28, S2…2RPGW; test: peptide-array ELISA (CYS.S)
T28 sequence (peptide, 2 = Cys(ACM)): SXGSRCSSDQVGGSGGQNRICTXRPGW

…2RP [9] = molecular target: T29, …2RP; test: peptide-array ELISA (CYS.S); remark: listed apart in the source
T29 sequence (peptide, 2 = Cys(ACM)): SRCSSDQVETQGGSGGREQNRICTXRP

…2R [10] = molecular target: T30, …2R; test: peptide-array ELISA (CYS.S); remark: listed apart in the source
T30 sequence (peptide, 2 = Cys(ACM)): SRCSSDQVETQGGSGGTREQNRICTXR

E2LS2…2RPG = molecular target: T31, E2LS2…2RPG; test: peptide-array ELISA (CYS.S)
T31 sequence (peptide, 2 = Cys(ACM)): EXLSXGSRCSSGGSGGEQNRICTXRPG

2LS2…2RPGW = molecular target: T32, 2LS2…2RPGW; test: peptide-array ELISA (CYS.S)
T32 sequence (peptide, 2 = Cys(ACM)): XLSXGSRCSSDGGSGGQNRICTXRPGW

S2…2RP = molecular target: T33, S2…2RP; test: peptide-array ELISA (CYS.S)
T33 sequence (peptide, 2 = Cys(ACM)): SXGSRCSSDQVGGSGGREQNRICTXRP

PE2LS2…2RP = molecular target: T34, PE2LS2…2RP; test: peptide-array ELISA (CYS.S)
T34 sequence (peptide, 2 = Cys(ACM)): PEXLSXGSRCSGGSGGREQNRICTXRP

…2RPGW [11] = molecular target: T35, …2RPGW; test: peptide-array ELISA (CYS.S); remark: listed apart in the source
T35 sequence (peptide, 2 = Cys(ACM)): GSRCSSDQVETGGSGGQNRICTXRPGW

2…2RPGW = molecular target: T36, 2…2RPGW; test: peptide-array ELISA (CYS.S)
T36 sequence (peptide, 2 = Cys(ACM)): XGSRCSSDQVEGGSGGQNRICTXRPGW

…2RPGWY2A = molecular target: T37, …2RPGWY2A; test: peptide-array ELISA (CYS.S) [Continued]
T37 sequence (peptide, 2 = Cys(ACM)): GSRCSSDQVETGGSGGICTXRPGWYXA

[12] = molecular target: T38, SKQEGCRL2…; test: peptide-array ELISA (CYS.S) [Continued]
T38 sequence (peptide, 2 = Cys(ACM)): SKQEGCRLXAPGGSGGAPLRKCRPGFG

B1: antagonistic TNFR2 antibody TNFRAB1 (antibody, V domains shown)
VH: EVQLQESGGGLVKPGGSLKLSCAASGFTFSSYVMSWVRQTPEKRLEWVATISSGGSYTYYPDSVKGRFTISRDNAKNTLYLQMSSLRSEDTAMYYCARQRVDGYSSYWYFDVWGAGTAVTVSS
VL: DIVLTQSPAIMSASPGEKVTITCSASSSVYYMYWFQQKPGTSPKLWIYSTSNLASGVPVRFSGSGSGTSYSLTISRMEAEDAATYYCQQRRNYPYTFGGGTKLEIKR
Raw luminescence data (LS2…2RPGW): 291 | Raw luminescence data (2…2RP): 228 | Raw luminescence data (LS2…2RPG): 244 | Raw luminescence data (VPE2LS2…2RPGW): 577 | Raw luminescence data (…2…2RPG): 248 | Raw luminescence data (2…2RPG): 221 | Raw luminescence data (…2…2RPGW): 493 | Raw luminescence data (PE2LS2…2RPG): 229 | Raw luminescence data (…2RPG [1]): 222 | Raw luminescence data (…2RPG [2]): 183 | Raw luminescence data (E2LS2…2RPGW): 482 | Raw luminescence data (…2RP [3]): 166 | Raw luminescence data (…2RP [4]): 130 | Raw luminescence data (…2…2RP): 250 | Raw luminescence data (S2…2RPG): 235 | Raw luminescence data (VPE2LS2…2RPG): 225 | Raw luminescence data (2LS2…2RP): 262 | Raw luminescence data (…2R [5]): 125 | Raw luminescence data (2LS2…2RPG): 214 | Raw luminescence data (LS2…2RP): 261 | Raw luminescence data (…2…2R): 179 | Raw luminescence data (…2RPGW [6]): 402 | Raw luminescence data (…2RPGW [7]): 507 | Raw luminescence data (…2RPG [8]): 202 | Raw luminescence data (E2LS2…2RP): 323 | Raw luminescence data (PE2LS2…2RPGW): 543 | Raw luminescence data (VPE2LS2…2RP): 318 | Raw luminescence data (S2…2RPGW): 364 | Raw luminescence data (…2RP [9]): 157 | Raw luminescence data (…2R [10]): 177 | Raw luminescence data (E2LS2…2RPG): 152 | Raw luminescence data (2LS2…2RPGW): 345 | Raw luminescence data (S2…2RP): 247 | Raw luminescence data (PE2LS2…2RP): 291 | Raw luminescence data (…2RPGW [11]): 466 | Raw luminescence data (2…2RPGW): 493 | Raw luminescence data (…2RPGWY2A): 403 | Raw luminescence data [12]: 220
